Results from IntAct's records for PubMed 15448699.

B1: Protein SIC1 (Saccharomyces cerevisiae), P38634 (parent)
chain: MTPSTPPRSRGTRYLAQPSGNTSSSALMQGQKTPQKPSQNLVPVTPSTTKSFKNAPLLAPPNSNMGMTSPFNGLTSPQRSPFPKSSVKRTLFQFESHDNGTVREEQEPLGRVNRILFPTQQNVDIDAAEEEEEGEVLLPPSRPTSARQLHLSLERDEFDQTHRKKIIKDVPGTPSDKVITFELAKNWNNNSPKNDARSQESEDEEDIIINPVRVGKNPFASDELVTQEIRNERKRAMLRENPDIEDVITYVNKKGEVVEKRRLTDEEKRRFKPKALFQSRDQEH
partner: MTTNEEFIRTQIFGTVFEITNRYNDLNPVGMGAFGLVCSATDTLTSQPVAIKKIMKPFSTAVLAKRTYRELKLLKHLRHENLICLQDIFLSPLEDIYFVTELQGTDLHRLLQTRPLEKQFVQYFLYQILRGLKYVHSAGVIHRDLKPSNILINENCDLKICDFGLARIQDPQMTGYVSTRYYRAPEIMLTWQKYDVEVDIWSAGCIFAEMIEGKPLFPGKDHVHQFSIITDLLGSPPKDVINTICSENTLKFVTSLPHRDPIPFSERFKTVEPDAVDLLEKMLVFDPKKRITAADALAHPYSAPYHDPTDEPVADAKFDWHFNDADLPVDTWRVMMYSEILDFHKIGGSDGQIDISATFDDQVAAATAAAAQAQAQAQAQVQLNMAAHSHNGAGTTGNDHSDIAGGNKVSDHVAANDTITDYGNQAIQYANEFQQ
B2: Protein SIC1 (Saccharomyces cerevisiae), P38634 (parent)
chain: B1 chain
partner: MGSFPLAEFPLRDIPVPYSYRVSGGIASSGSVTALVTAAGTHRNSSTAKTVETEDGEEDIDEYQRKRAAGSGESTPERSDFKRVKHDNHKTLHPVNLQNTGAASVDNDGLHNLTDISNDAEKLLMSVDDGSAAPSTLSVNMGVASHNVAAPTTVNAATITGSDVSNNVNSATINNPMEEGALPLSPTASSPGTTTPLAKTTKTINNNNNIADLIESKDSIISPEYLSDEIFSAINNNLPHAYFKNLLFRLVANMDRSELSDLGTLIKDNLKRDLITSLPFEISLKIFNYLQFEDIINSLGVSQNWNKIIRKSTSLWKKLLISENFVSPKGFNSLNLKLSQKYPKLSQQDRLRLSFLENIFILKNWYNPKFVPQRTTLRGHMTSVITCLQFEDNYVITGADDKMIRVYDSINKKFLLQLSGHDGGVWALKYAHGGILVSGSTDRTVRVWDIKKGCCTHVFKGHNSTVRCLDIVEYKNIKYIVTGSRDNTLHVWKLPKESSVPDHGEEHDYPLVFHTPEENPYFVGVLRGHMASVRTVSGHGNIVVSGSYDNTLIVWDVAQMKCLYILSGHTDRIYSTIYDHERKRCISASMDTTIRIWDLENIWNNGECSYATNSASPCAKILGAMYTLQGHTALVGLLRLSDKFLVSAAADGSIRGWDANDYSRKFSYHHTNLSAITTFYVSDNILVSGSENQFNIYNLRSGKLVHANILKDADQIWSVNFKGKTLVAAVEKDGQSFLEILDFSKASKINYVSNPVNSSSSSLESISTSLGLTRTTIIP

Variants of: B1
Conditions: with hog1_yeast HOG1, P32485

Row | Variant | effect of a mutation on the interaction
1 | T173E | disrupting interaction

Variants of: B2
Conditions: with cdc4_yeast CDC4, P07834

Row | Variant | effect of a mutation on the interaction
2 | T173E | decreasing interaction
